From patent publication US11578136B2, “Compositions and methods for treating cancer” (INNATE PHARMA, priority 2017, dated 2023)

Biological target: T1, CHO cells expressing murine CD39 (Mus musculus, UniProt P55772)
T1 construct: expressed in transfected cells; host or cells: CHO cells
T1 sequence (P55772 1-510): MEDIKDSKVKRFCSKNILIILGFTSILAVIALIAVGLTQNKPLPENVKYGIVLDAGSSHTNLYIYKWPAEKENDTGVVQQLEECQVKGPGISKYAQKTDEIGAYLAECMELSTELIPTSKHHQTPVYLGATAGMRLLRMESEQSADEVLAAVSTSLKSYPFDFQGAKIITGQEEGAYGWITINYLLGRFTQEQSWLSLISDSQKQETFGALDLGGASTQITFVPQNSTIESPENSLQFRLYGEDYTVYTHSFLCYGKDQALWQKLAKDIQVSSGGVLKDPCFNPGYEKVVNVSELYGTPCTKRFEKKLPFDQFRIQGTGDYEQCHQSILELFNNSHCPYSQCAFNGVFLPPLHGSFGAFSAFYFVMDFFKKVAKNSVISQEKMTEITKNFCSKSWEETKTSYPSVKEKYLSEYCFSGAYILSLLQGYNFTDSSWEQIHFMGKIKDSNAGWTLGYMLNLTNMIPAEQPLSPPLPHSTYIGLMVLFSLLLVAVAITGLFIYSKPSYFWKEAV
Experiment: Antibody titration on CHO-moCD39 by flow cytometry
Format: binding
Settings: result in words
Description: Antibody I-394 was tested in two repeated experiments for binding to CHO cells expressing human CD39, CHO cells expressing cynomolgus (Macaca fascicularis) CD39, CHO cells expressing murine CD39, and human Ramos lymphoma cells (ATCC™, reference CRL-1596). Cells were incubated with various concentration of unlabeled anti-CD39 antibody from 30 μg/ml to 5×10^−4 μg/ml, for 30 minutes at 4° C. After washes, cells were incubated with Goat anti-mouse H+L labeled secondary antibody for 30 min at 4° C.

binding to cells expressing murine CD39 (CHO-moCD39): not
Substance: I-394: anti-CD39 antibody, VH SEQ ID NO: 6, VL SEQ ID NO: 7; human IgG1 Fc with L234A/L235E/G237A/A330S/P331S
